This is an account of results in US20230167192A1 (SUZHOU ZELGEN BIOPHARMACEUTICALS, published 2023).

Assay [1] deals with monkey CD47 on monkey erythrocytes (monkey). Nature of the assay: flow cytometry on monkey erythrocytes.
Assay [2] deals with T1, human CD47 on cells (human, UniProt Q08722 19-323).
T1 construct: whole, on cells; also called CHO-CD47 cells; MKN-45
Nature of the assay: flow cytometry on A2780 cells. Here is the method:
(§1) First, the inventors verified the expression of CD47 in the above 3 cell lines using flow cytometry. Serially diluted solutions of anti-human CD47 detection antibody (eBioscience, 17-0479-42) and APC isotype (eBioscience, 17-4714-41), anti-huIgG 633 (life technologies, A21091) were prepared with PBS to formulate 2× working solutions at final concentrations. The three tumor cells were collected, washed with PBS once, counted, and diluted to 4×10⁶/mL cell suspension. For each cell line, 50 μL of the antibody working solution was added into 50 μL of cell suspension, and the mixture was incubated at 4° C. in the dark for 30 min. After washing twice with PBS, a corresponding fluorescence-labeled secondary antibody (anti-huIgG 633) was added, and the mixture was incubated for 30 min at 4° C. in the dark, washed twice with PBS, and suspended with 400 μL of FACS buffer. The binding of the antibodies to the cells was detected by a flow cytometer.
(§2) The method is the same as above.

The target in assay [3] is T1, human CD47 on cells. Nature of the assay: flow cytometry on SW620 cells. On the procedure:
as §1, §2

Assay [4] addresses T1, human CD47 on cells. Nature of the assay: flow cytometry on MKN-45 cells. Here is the method:
as §1, §2

Assay [5] deals with T2, human CD47 protein (human, UniProt Q08722 19-139, limits assumed). Nature of the assay: ELISA, plate coated with human CD47 protein. On the procedure:
The next day, the plate was washed 3 times with 300 μL of PBST (Tween 20: 0.5‰), then blocked with 5% BSA/PBS at 100 μL/well for 2 h, and shaken at room temperature. The plate was then washed with 300 μL of PBST 3 times. The antibody samples prepared with PBS were serially diluted, added to a 96-well plate at 100 μL/well and shaken for 1 h at room temperature. The plate was then washed with 300 μL of PBST 3 times. A secondary goat anti-mouse IgG HRP or goat anti-human IgG HRP solution was prepared, added to a 96-well plate at 100 μL/well and shaken for 1 h at room temperature. The plate was then washed with 300 μL of PBST 4 times. TMB was added at 100 μL/well for 20 min of chromogenesis. The chromogenesis was terminated by adding 0.6 N H₂SO₄ at 100 μL/well and the OD_{450 nm} was detected.

In assay [6] the target is T1, human CD47 on cells. Kind of assay: flow cytometry, inhibition of SIRPα-mFc binding to CHO-CD47 cells.
For assay [7], the target named is T1, human CD47 on cells. Kind of assay: flow cytometry on human erythrocytes; human erythrocytes, flow cytometry. On the procedure:
Erythrocytes were first isolated from the peripheral blood of volunteers and suspended in physiological saline to obtain an erythrocyte suspension with a concentration of 2%. Serially diluted antibody solutions were prepared with PBS to formulate 2× working solutions at final concentrations. 50 μL of the antibody working solution was added into 50 μL of erythrocyte suspension, and the mixture was incubated at 4° C. in the dark for 60 min. After washing twice with PBS, a corresponding fluorescence-labeled secondary antibody was added, and the mixture was incubated for 30 min at 4° C. in the dark, washed twice with PBS, and suspended with 400 μL of FACS buffer. The binding of the antibodies to the erythrocytes was detected by a flow cytometer. For erythrocyte agglutination detection, 50 μL of the antibody working solution was also added into 50 μL of erythrocyte suspension. The mixture was placed on a 96-well round bottom plate, let stand at room temperature for 2 h, observed and photographed.

Assay [8] concerns the target T2, human CD47 protein. Nature of the assay: SPR (Biacore T200), antibody captured on protein A chip, CD47 protein in solution. Here is the method:
The affinity of antigen-antibody binding was measured by SPR (surface plasma resonance). […] During the dissociation phase, elution was continued for 360 s with HBS-EP buffer. The binding of CD47 to the antibody on the sensor chip was quantitatively determined using Biacore T200 (GE Healthcare).

Assay [9] concerns the target monkey CD47 on monkey erythrocytes (monkey, UniProt A0A2K5X4H8 19-305). Nature of the assay: flow cytometry on monkey erythrocytes.

Sequence of monkey CD47 on monkey erythrocytes (monkey) (A0A2K5 entry or part of it limits assumed): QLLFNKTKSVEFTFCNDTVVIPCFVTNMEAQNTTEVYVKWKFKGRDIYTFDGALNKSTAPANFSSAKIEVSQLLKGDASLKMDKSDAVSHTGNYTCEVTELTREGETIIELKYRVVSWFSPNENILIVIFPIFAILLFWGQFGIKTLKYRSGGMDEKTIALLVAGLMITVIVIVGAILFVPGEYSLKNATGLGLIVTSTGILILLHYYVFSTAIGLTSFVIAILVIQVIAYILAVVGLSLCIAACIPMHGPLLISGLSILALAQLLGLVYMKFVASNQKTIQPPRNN
Sequence of monkey CD47 on monkey erythrocytes (A0A2K5X4H8 entry or part of it limits assumed): as the sequence (A0A2K5 entry or part of it limits assumed) above

In [1], positive control antibody Hu5F9 showed an EC50 of 0.586 µg/mL and a plateau of 392.

B1: humanized antibody UM03-C4 (antibody, human IgG4 S228P, kappa, V domains shown)
VH: QVQLVESGGGVVQPGGSLRLSCAASGFTFSDYGMAWIRQAPGKGPEWIAFITNLASSIYYADTVTGRFTISRDNSKNTLYLQMNSLRAEDTAVYYCARAGDYRSFPYWGQGTLVTVSA
VL: EIVLTQSPATLSLSPGERATLSCSASSSVNYVNWYQQKPGQAPRILIYGISNLASGVPARFSGSGSGTDFTLTISSLEPEDFAVYYCQQRSTFPPYTFGQGTKLEIKR
notes: expressed in HEK293 cells
As for B1, the EC50 in the assay with human CD47 on cells [2] turned out to be 0.119 µg/mL; with human CD47 on cells [3] it was 0.126 µg/mL; with human CD47 on cells [4], 0.354 µg/mL; with human CD47 protein [5], 0.169 µg/mL; with human CD47 on cells [7], 0.93 µg/mL. Further, in the assay with human CD47 on cells [6], the IC50 was 2.4 µg/mL. For the same molecule, the Kd with human CD47 protein [8] was determined as 0.19 nM. In addition, the koff in the assay with human CD47 protein [8] is 0.000193 s⁻¹. Further, the on-rate constant (kon) with human CD47 protein [8] came to 1.02e+06 M⁻¹ s⁻¹.

B2: human-mouse chimeric antibody UM03-L4 (antibody, human IgG4 S228P, kappa, V domains shown)
VH: EVKLVESGGDLVQPGGSRKLSCAASGFTFSDYGMAWIRQAPGKGPEWIAFITNLASSIYYADTVTGRFTISRENAKNTLYLEMSSLRSEDTAMYYCARAGDYRSFPYWGQGTPVTVSA
VL: EILLTQSPAIIAASPGEKVTITCSASSSVNYVNWYQQKPGSSPKIWIYGISNLASGVPARFSGSGSGTSFSFTINSMEAEDVATYYCQQRSTFPPYTFGGGTKLEIKR
notes: expressed in HEK293 cells
For B2, the EC50 in the assay with human CD47 on cells [2] is 0.142 µg/mL; in the assay with human CD47 on cells [3], 0.216 µg/mL; with human CD47 on cells [4], 0.381 µg/mL; in [9], 0.907 µg/mL; with human CD47 protein [5], 0.25 µg/mL; in the assay with human CD47 on cells [7], 1.21 µg/mL. Moreover, in the assay with human CD47 on cells [6], the IC50 amounted to 3.38 µg/mL.
